The target in one test is human PD-1 (human) (UniProt Q15116). The test can be described thus: cell-based or functional assay.
The target in another test is human PD-1 ECD (human). Nature of the test: SPR, 37 °C.
Chain of human PD-1 ECD (human) (Q15116 25-170): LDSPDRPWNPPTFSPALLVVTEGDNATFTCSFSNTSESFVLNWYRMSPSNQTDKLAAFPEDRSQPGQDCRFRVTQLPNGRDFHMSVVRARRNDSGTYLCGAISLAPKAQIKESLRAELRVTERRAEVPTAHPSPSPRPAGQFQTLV

Chain of human PD-1 (human) (Q15116 25-288): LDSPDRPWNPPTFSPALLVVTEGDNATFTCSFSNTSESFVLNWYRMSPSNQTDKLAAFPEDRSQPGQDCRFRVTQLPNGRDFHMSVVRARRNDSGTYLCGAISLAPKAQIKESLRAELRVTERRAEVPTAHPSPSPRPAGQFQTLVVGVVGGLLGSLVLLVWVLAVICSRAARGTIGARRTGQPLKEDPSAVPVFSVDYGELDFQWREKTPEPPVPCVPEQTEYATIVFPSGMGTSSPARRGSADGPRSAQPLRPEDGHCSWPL

B1: G2 IgG1 mAb (antibody, INN chains, looked up, V domains shown)
VH: QVQLVQSGAEVKKPGASVKVSCKVSGYSLSKYDMSWVRQAPGKGLEWMGIIYTSGYTDYAQKFQGRVTMTEDTSTDTAYMELSSLRSEDTAVYYCATGNPYYTNGFNSWGQGTLVTVSS
VL: DIQMTQSPSSLSASVGDRVTITCQASQSPNNLLAWYQQKPGKAPKLLIYGASDLPSGVPSRFSGSGSGTDFTLTISSLQPEDFATYYCQNNYYVGPVSYAFGGGTKVEIK
modifications: IgG1
For B1, in the test with human PD-1 (human), the % ADCC Activated T cells, mean turned out to be 3.3%; the % ADCC PBMC, mean is 0.2%; the % Inhibition Proliferation, mean (SEB assay) came to 36.9%; the % PD-1 Expression Inhibition, mean (SEB assay) amounted to 50.8%. Further, in the test with human PD-1 (human), the % T cell Proliferation Inhibition, mean (SEB assay) was found to be 56.5%. The molecule also showed a Kd in the test with human PD-1 ECD (human) of 2.3 nM.

As usually defined, the Kd is a measure of binding affinity in units of concentration. The low end stands for a tighter complex, the high end for a looser complex.
